Reference: US20210355175A1 (University of Washington, published 2021)

T1: DHD39 chain b
T1 construct: In the NOR gate it was fused to the Gal4 DBD; also called 10′; DHD_39 b
T1 chain: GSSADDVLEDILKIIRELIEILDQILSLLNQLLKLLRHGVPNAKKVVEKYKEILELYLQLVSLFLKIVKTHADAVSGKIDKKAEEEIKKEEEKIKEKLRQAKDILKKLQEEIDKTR

T2: DHD127 chain b
T2 construct: also called DHD_127 b
T2 chain: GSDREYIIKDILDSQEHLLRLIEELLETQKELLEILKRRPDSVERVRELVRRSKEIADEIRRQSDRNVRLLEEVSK

T3: DHD37_1:234 chain b
T3 construct: Single-helix monomer of the backbone-permuted 3+1 heterodimer
T3 chain: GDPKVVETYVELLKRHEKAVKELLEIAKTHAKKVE

T4: 2′-1′_6-residue_linker
T4 construct: also called 1′-2′; 1′-2′ with a 6-residue linker
T4 chain: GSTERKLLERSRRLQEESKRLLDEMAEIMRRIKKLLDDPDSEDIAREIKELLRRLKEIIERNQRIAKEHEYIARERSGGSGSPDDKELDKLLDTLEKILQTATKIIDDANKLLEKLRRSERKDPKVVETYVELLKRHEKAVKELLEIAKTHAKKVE

T5: DHDSC_9-13-37 chain 13b
T5 chain: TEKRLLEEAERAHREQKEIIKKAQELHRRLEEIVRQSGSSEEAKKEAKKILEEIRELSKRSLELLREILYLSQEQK

T6: DHD9 chain b
T6 construct: also called 9b; 9_b
T6 chain: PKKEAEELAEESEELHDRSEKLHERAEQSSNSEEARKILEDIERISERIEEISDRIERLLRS

T7: DHD17 chain b
T7 construct: Co-expressed input protein of the NOT gate; also called 8′
T7 chain: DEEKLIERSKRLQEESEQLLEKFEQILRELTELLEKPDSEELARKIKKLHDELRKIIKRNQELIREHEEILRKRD

B1: DHD13_XAAA chain a (designed binder)
chain: GTKEDILERQRKIIERAQEIHRRQQEILEELERIIRKPGSSEEAMKRMLKLLEESLRLLKELLELSEESAQLLYEQR
B2: DHD127 chain a (designed binder)
chain: GSPRSYLLKELADLSQHLVRLLERLVRESERVVEVLERGEVDEEELKRLEDLHRELEKAVREVRETHREIRERSR
notes: also called DHD_127 a
B3: DHD13_XAAA chain b (designed binder)
chain: GTEKRLLEEAERAHREQKEIIKKAQELHRRLEEIVRQSGSSEEAKKEAKKILEEIRELSKRSLELLREILYLSQEQKGSLVPR
notes: also called 9′
B4: DHD37_1:234 chain a (designed binder)
chain: DSDEHLYKLKTFLENLRRHLDRLDKHIKQLRDILSENPEDERVKDAIDLSERSVRIVKTVIKIFEDSVRKKEKRPIDKRDDKELDKLLDTLEKILQTATKIIDDANKLLEYLRR
notes: Three-helix monomer of the backbone-permuted 3+1 heterodimer
B5: DHD37_ABXB chain b (designed binder)
chain: GSDDKELDKLLDTLEKILQTATKIIDDANKLLEKLRRSERKDPKVVETYVELLKRHEKAVKELLEIAKTHAKKVE
notes: Used in Y2H as a co-expressed input or fused to Gal4 AD/DBD; also called 1′; 1′ (b)
B6: DHD37_ABXB chain a (designed binder)
chain: DSDEHLKKLKTFLENLRRHLDRLDKHIKQLRDILSENPEDERVKDVIDLSERSVRIVKTVIKIFEDSVRKKE
notes: In Y2H it was fused to Gal4 AD or DBD
B7: DHDSC_9-13-37 scaffold, chain 9a-13a-37a (designed binder)
chain: PKEEARELIRKQKELIKEQKKLIKEAKQKSDSRDAERIWKRSREINRESKKINKRIKELIKSGSEGSGSEGSGSTKEDILERQRKIIERAQEIHRRQQEILEELERIIRKPGSSEEAMKRMLKLLEESLRLLKELLELSEESAQLLYEQRGSEGSGSEGSGSDSDEHLKKLKTFLENLRRHLDRLDKHIKQLRDILSENPEDERVKDVIDLSERSVRIVKTVIKIFEDSVRKKE
B8: DHD39 chain a (designed binder)
chain: DHSRKLEEILDRLRKHVKRLLEHLRELLSLVKENPEDKDLVEVLELSLAILRRSLEAVEAFLKSVTKKDPDDEDLRRKADEIRKEVEEIKKSLAEVEKEIYKLK
notes: also called 10; DHD_39 a
B9: DHD17 chain a (designed binder)
chain: DRKDLLKRNIKLLDRHLKILDTILKLLEKLSELLKKSSSEEVVKEYKKILDEIRKLLEESKEIHKESKEILERES
notes: In the NOT gate it was fused to both Gal4 AD and DBD; also called DHS 17 a

How the values were obtained:
DHD13_XAAA chain b = molecular target: B3; assay: yeast two-hybrid competition by the co-expressed unfused monomer
DHD39 chain b = molecular target: T1, DHD39 chain b; assay: individual yeast two-hybrid experiments
DHD37_ABXB chain a = molecular target: B6; assay: individual yeast two-hybrid experiments
DHD127 chain b = molecular target: T2, DHD127 chain b; assay: X-ray crystal structure of the heterodimer
Source text: (§2) The X-ray data sets were collected at the Advanced Light Source at Lawrence Berkeley National Laboratory with beamlines 8.2.1 and 8.2.2. Data sets were indexed and scaled using either XDS³³ or HKL2000³⁴. Initial models were generated by the molecular-replacement method with the program PHASER³⁵ within the Phenix™ software suite³⁶, using the design models as the initial search models. Efforts were made to reduce model bias through refinement with simulated annealing using Phenix.Refine™³⁷, or, if the resolution was sufficient, by using Phenix.Autobuild™³⁸ with rebuild-in-place set to false, simulated annealing and prime-and-switch phasing. Iterative rounds of manual building in COOT³⁹ and refinement in Phenix™ were used to produce the final models. […] RMSDs of bond lengths, angles and dihedrals from ideal geometries were calculated with Phenix™³⁶.

DHD37_ABXB chain b = molecular target: B5; assay: individual yeast two-hybrid experiments
DHD37_1:234 chain b = molecular target: T3, DHD37_1:234 chain b; assay: X-ray crystal structure of the heterodimer
Source text: as §2

2′-1′_6-residue_linker [1] = molecular target: T4, 2′-1′_6-residue_linker; assay: thermodynamic model matched to native MS titration data
Source text: (§1) We studied the cooperativity of the induced dimerizer system in vitro using native mass spectrometry (FIG. 11F). […] We define cooperativity as the ratio of the affinities in the presence and absence of the other monomer, which in our model directly relates to the free energy of opening of the dimerizer (c=e^ΔG^ₒₚₑₙ^{/RT}, see supplementary materials).

2′-1′_6-residue_linker [2] = molecular target: T4, 2′-1′_6-residue_linker; assay: native mass spectrometry, 10 µM of 1 and 1′-2′; bound from the detection limit of 0.0375 µM
2′-1′_6-residue_linker [3] = molecular target: T4, 2′-1′_6-residue_linker; assay: calculated from the cooperativity factor fitted to native MS data
Source text: as §1
We experimentally estimated K₁ using native MS experiments.

DHDSC_9-13-37 chain 13b = molecular target: T5, DHDSC_9-13-37 chain 13b; assay: co-expression in E. coli, one b monomer His-tagged
DHD9 chain b = molecular target: T6, DHD9 chain b; assay: co-expression in E. coli, one b monomer His-tagged
yeast two-hybrid = molecular target: the molecule itself; assay: yeast two-hybrid
DHD17 chain b = molecular target: T7, DHD17 chain b; assay: yeast two-hybrid

B1
binding result (DHD13_XAAA chain b): binds | binding result (DHD39 chain b): binds | binding result (DHD37_ABXB chain a): binds

B2
binding result (DHD127 chain b): binds

B3
binding result (DHD37_ABXB chain b): binds

B4
binding result (DHD37_1:234 chain b): binds

B5
binding result (DHD39 chain b): binds

B6
cooperativity c (ratio of the affinities in the presence and absence of the other monomer) (2′-1′_6-residue_linker [1]): 991000 | Kd (2′-1′_6-residue_linker [2]): 2.65 mM | Kd (2′-1′_6-residue_linker [3]): 9.91 mM | binding result (DHD37_ABXB chain b): binds

B7
binding result (DHDSC_9-13-37 chain 13b): binds | binding result (DHD9 chain b): binds

B8
binding result (DHD39 chain b): binds

B9
binding result (yeast two-hybrid): binds | binding result (DHD17 chain b): binds
